Reference: US9150638B2, “Factor XII inhibitors for treating interstitial lung disease” (Justus-Liebig-Universität Giessen, priority 2010, dated 2015)

Assays:
FXII [1] = test: TGF-β1-induced FXII expression in HLF; type: cell-based, human; settings: for FXII expression in response to TGF-β1 (Western blot): HLF treated with inhibitor 1 h prior to TGF-β1 for 48 h
Method: Human lung specimens of the pulmonary parenchyma and mouse lungs were chopped into <1 mm^3 pieces. The minced pieces were washed twice with PBS and then plated in 100-mm dishes (Greiner-bio-one, Frickenhausen, Germany). The specimens were cultured with Dulbecco's modified Eagle's medium (DMEM; Invitrogen, Karlsruhe, Germany) supplemented with 10% fetal calf serum (FCS; HyClone, South Logan, UT), and 1% penicillin/streptomycin (Invitrogen) in humidified atmosphere of 5% CO2 at 37° C. Purity of isolated fibroblasts was verified by positive staining for vimentin, fibronectin and collagen IV. All experiments were carried out with lung fibroblasts from passages 3-4. The mouse NIH3T3 fibroblasts were cultured in DMEM supplemented with 10% FCS, and 1% penicillin/streptomycin in humidified atmosphere of 5% CO2 at 37° C.
(§1) Proteins separated on SDS polyacrylamide gel were transferred to a PVDF membrane (Amersham Biosciences, Freiburg, Germany) using wet transfer technique in transfer buffer (25 mM Tris, 192 mM Glycine, 20% (v/v) Methanol) for 1 h at 100V. After blocking with 5% non-fat dry milk in tris-buffered saline (TBS; 25 mM Tris-Cl, 150 mM NaCl, pH 7.5) containing 0.1% (v/v) Tween 20 (TBS-T), the membranes were incubated at 4° C. overnight with appropriate primary antibody diluted in 1% BSA in TBS-T. After 1 h incubation with peroxidase-labelled secondary antibody (all from Dako, Gostrup, Denmark) proteins were detected using ECL Plus Kit (Amersham Biosciences, Freiburg, Germany). To determine the amounts of protein loaded on the gel, blots were in 1 hour (stripping buffer: 100 mM Glycine, 1% HCl) and reprobed using an anti-β-actin or appropriate anti-pan antibody.
Pre-designed, commercially available siRNA sequences directed against human Smad 3 (Dharmacon, Chicago, Ill.), human JNK1 (Abnova, Heidelberg, Germany), and an universal negative-control siRNA (Ambion, Austin, Tex.) were employed. Cells were treated with siRNA (250 nM each) using the X-treme Gene siRNA Transfection Reagent (Roche). The siRNA-mediated downregulation of the target genes was assessed 72 h after transfection by Western blotting.

murine lung fibroblasts = test: Proliferation assay, [3H]-thymidine incorporation after FXIIa stimulation; type: cell-based; settings: for FXIIa-induced proliferation ([3H]-thymidine incorporation): added or preincubated 1-2 hours before FXIIa, 10.0 μM PD98059, 5 μM SP600125, 0.7 μM Wortmannin, 3 μM SB203580, blocking antibodies 5 μg/ml
Method: Human lung specimens of the pulmonary parenchyma and mouse lungs were chopped into <1 mm^3 pieces. The minced pieces were washed twice with PBS and then plated in 100-mm dishes (Greiner-bio-one, Frickenhausen, Germany). The specimens were cultured with Dulbecco's modified Eagle's medium (DMEM; Invitrogen, Karlsruhe, Germany) supplemented with 10% fetal calf serum (FCS; HyClone, South Logan, UT), and 1% penicillin/streptomycin (Invitrogen) in humidified atmosphere of 5% CO2 at 37° C. Purity of isolated fibroblasts was verified by positive staining for vimentin, fibronectin and collagen IV. All experiments were carried out with lung fibroblasts from passages 3-4. The mouse NIH3T3 fibroblasts were cultured in DMEM supplemented with 10% FCS, and 1% penicillin/streptomycin in humidified atmosphere of 5% CO2 at 37° C. The primary murine lung fibroblasts were seeded in 48-well plates and starved in serum free DMEM (Dulbecco's Modified Eagle's Medium) for 24 hours prior to FXIIa (American Diagnostica, Stamford, Conn.) stimulation. In some experiments cells were preincubated with 5 μg/ml anti-uPAR (R&D Systems, Wiesbaden, Germany), anti-β1-integrin or anti-α5-integrin (both from Millipore, Billerica, Mass.) blocking antibodies 1-2 hours before exposure to FXIIa. In addition in some experiment 10.0 μM PD98059, 5 μM SP600125, 0.7 μM Wortmannin, 3 μM SB203580 (all from Calbiochem, Darmstadt, Germany) were added to the cell culture medium 1-2 hours prior to the addition of FXIIa. Cells were treated with 3-9 μg/ml FXIIa alone or in the presence of its specific inhibitors: Corn Trypsin Inhibitor ([…]-chloromethylketone (PCK, Bachem, Weil am Rhein, Germany) or uPAR synthetic peptides. After 24-36 hours the cells were exposed to [3H]Thymidine (0.2 μCi per well) for 6-12 hours, rinsed three times with PBS and solubilized with 0.2 ml 0.5M sodium hydroxide. 0.1 ml of the solubilized material was quantified by liquid scintillation counting (TRI-CARB® 1500, A Canbera Company, Meriden, Conn.). [^3H]Thymidine incorporation was expressed as absolute radioactivity (counts per minute per well).

cyclin D1 = test: Immunoblot of cyclin D1 expression after FXIIa stimulation; type: cell-based, murine; settings: 6 hours after 6 μg/ml FXIIa stimulation
Method: as §1

FXII [2] = molecular target: T1, FXII (Homo sapiens, UniProt P00748); test: FXII activity assay using chromogenic substrate, BALF from IPF patients; type: biochemical
T1 construct: increased enzymatic activity FXII in broncholaveolar lavage fluid (BALF) from IPF patients; from tissue; host or cells: bronchoalveolar lavage fluid (BALF) of IPF patients and donors
T1 sequence (P00748 20-615): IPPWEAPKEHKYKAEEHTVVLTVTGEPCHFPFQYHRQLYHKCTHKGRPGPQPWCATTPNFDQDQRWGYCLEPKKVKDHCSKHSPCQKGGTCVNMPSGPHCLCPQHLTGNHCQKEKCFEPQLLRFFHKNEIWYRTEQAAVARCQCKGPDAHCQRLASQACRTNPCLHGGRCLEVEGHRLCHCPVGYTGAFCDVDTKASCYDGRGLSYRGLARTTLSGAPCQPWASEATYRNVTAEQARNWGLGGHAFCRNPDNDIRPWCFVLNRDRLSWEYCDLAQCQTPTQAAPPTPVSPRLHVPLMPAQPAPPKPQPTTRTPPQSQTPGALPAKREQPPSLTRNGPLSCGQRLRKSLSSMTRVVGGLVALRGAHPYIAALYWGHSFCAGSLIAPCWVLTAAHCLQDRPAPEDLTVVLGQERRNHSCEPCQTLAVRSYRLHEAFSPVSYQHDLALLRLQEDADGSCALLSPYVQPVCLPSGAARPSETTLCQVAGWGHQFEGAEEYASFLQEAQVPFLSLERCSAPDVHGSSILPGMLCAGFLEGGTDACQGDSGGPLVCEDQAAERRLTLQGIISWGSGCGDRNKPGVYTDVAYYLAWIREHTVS
Description: A test for determining the catalytic activity of FXIIa is described in Kannemeier C, Shibamiya A, Nakazawa F, Trusheim H, Ruppert C, Markart P, Song Y, Tzima E, Kennerknecht E, Niepmann M, Bruehl M L, Sedding D, Massberg S, Gunther A, Engelmann B, Preissner K T. Extracellular RNA constitutes a natural procoagulant cofactor in blood coagulation. Proc Natl Acad Sci USA. 104:6388-6393, 2007. Briefly, the FXIIa-sample and a chromogenic substrate peptide is mixed, and the release of p-nitroanilin is followed over time in a photometer at 405 nm. A compound is suitable as an inhibitor of the catalytic, in particular the enzymatic activity of FXIIa if it is capable of reducing the catalytic activity in that assay in a significant manner, preferably by at least 10%, more preferably by at least 25%, most preferably by at least 50% such as at least 75% or even at least 90%.

p44/42 = test: Western blot of p44/42 phosphorylation after FXIIa exposure; type: cell-based, murine; settings: after 30 min of FXIIa exposure
Method: as §1

Akt = test: Western blot of Akt phosphorylation after FXIIa exposure; type: cell-based, murine; settings: after 30 min of FXIIa exposure
Method: as §1

[3] = test system: bleomycin induced lung fibrosis; test: Bleomycin induced lung fibrosis in mice with intratracheal CTI
Description: Male mice weighing between 20-22 g were used in all experiments. Animals were kept according to NIH guidelines and experiments were undertaken with permission of local authorities. The animals were anesthetized by intraperitoneal injection of a mixture of ketamine hydrochloride and xylazine hydrochloride. Bleomycin in dosis 5U/kg body weight was given as aerosol. For bleomycin delivery, animals were orotracheally intubated and mechanically ventilated. A microsprayer (Penn-Century Inc, Philadelphia, Pa.) was filled with 100 μl of saline solution containing bleomycin, introduced into the tracheal cannula, positioned slightly above the carina and aerosol generation was achieved under end-expiratory breath arrest by rapidly emptying the syringe. Controls mice received vehicle only (0.9% saline). 5 mg/kg CTI and 8 mg/kg PCK, both diluted in 0.9% saline, were administrated intratracheally on day 9, 12, 15 and 18 in dosis or of mouse body weight, respectively. The mice were sacrificed after 21 days post application (if not indicated in the text) with a lethal dose of ketamine and xylazine.
Mice were tracheotomised and ventilated in a volume driven mode at a positive end-expiratory pressure of 0 kPa. Respiration rate was set at 20 breaths·min^−1 and ventilation pressure was recorded while inflating the lung at a tidal volume of 200 μL.
After sacrifice of animals, the chest was opened and the lungs were flushed via a catheter that was placed into the pulmonary artery with PBS buffer. Once the effluent was clear of blood, lungs were removed and placed in paraformaldehyde or nitrogen for further examination. For cells isolation lungs were placed in PBS buffer.
Paraffin-embedded, formalin-fixed lung tissue was sectioned at 5 microns and processed for immunohistochemical staining using appropriate primary antibody and ZytoChem Plus AP-Fast Red Kit according to the manufacturer's instructions (Zytomed Systems, Berlin, Germany). Negative controls were obtained in all cases by omitting the primary antibody.

[4] = FIG. 25D,E, bleomycin application
[5] = day 21 after bleomycin, CTI 5 mg/kg intratracheally
[6] = saline control animals which received CTI

TGF-β1: cytokine (R&D Systems) used at 10 ng/ml to stimulate cells
synthesis of FXII in HLF (FXII [1]; exposure to 10 ng/ml TGF-β1): stimulated the synthesis of FXII in a time dependent manner

COc1cccc(-c2cc(=O)c3ccccc3o2)c1N [PD98059, reference compound]
FXIIa-induced proliferation ([3H]-thymidine incorporation) (murine lung fibroblasts): reduction of murine lung fibroblasts proliferation
FXII expression in response to TGF-β1 (Western blot) (FXII [1]): No change in FXII expression

C[S+]([O-])c1ccc(-c2nc(-c3ccncc3)c(-c3ccc(F)cc3)[nH]2)cc1 (stereo not drawn) [SB203580, reference compound]
FXIIa-induced proliferation ([3H]-thymidine incorporation) (murine lung fibroblasts): No change in DNA sythesis
FXII expression in response to TGF-β1 (Western blot) (FXII [1]): No change in FXII expression

B1: FXIIa: activated factor XII (American Diagnostica) used to stimulate fibroblasts (protein)
chain: IPPWEAPKEHKYKAEEHTVVLTVTGEPCHFPFQYHRQLYHKCTHKGRPGPQPWCATTPNFDQDQRWGYCLEPKKVKDHCSKHSPCQKGGTCVNMPSGPHCLCPQHLTGNHCQKEKCFEPQLLRFFHKNEIWYRTEQAAVARCQCKGPDAHCQRLASQACRTNPCLHGGRCLEVEGHRLCHCPVGYTGAFCDVDTKASCYDGRGLSYRGLARTTLSGAPCQPWASEATYRNVTAEQARNWGLGGHAFCRNPDNDIRPWCFVLNRDRLSWEYCDLAQCQTPTQAAPPTPVSPRLHVPLMPAQPAPPKPQPTTRTPPQSQTPGALPAKREQPPSLTRNGPLSCGQRLRKSLSSMTRVVGGLVALRGAHPYIAALYWGHSFCAGSLIAPCWVLTAAHCLQDRPAPEDLTVVLGQERRNHSCEPCQTLAVRSYRLHEAFSPVSYQHDLALLRLQEDADGSCALLSPYVQPVCLPSGAARPSETTLCQVAGWGHQFEGAEEYASFLQEAQVPFLSLERCSAPDVHGSSILPGMLCAGFLEGGTDACQGDSGGPLVCEDQAAERRLTLQGIISWGSGCGDRNKPGVYTDVAYYLAWIREHTVS
DNA synthesis ([3H]-thymidine incorporation) after FXIIa treatment (murine lung fibroblasts; increasing concentration of FXIIa): dose-dependent increase
cyclin D expression (cyclin D1): increased

B2: CTI: Corn Trypsin Inhibitor, a specific FXII activity inhibitor (Calbiochem) (protein)
chain: SAGTSCVPGWAIPHNPLPSCRWYVTSRTCGIGPRLPWPELKRRCCRELADIPAYCRCTALSILMDGAIPPGPDAQLEGRLEDLPGCPREVQRGFAATLVTEAECNLATIS
FXII activity (chromogenic substrate) (FXII [2]): blockade of FXII activity
FXIIa-induced proliferation ([3H]-thymidine incorporation) (murine lung fibroblasts): blocked
p44/42 phosphorylation (p44/42): attenuated
Akt phosphorylation (Akt): attenuated
lung remodelling and collagen deposition ([3]; FIG. 25A, bleomycin-treated mice): largely protected against lung remodelling and collagen deposition
survival curves (Kaplan-Meier plot) ([3]; FIG. 25B, bleomycin-treated mice): significantly protected
increase in collagen content [3, 4]: significantly prevented
increase in septum thickness [3, 4]: significantly prevented
collagen accumulation (Masson-Trichrom staining) [3, 5]: markedly reduced
histologic findings in the lungs (fibrotic lesions) [3, 5]: less fibrotic lesions
lung compliance ([3]; day 21 after bleomycin, CTI 5 mg/kg intratracheally at day 9, 12, 15 and 18): significantly improved
mortality ([3]; day 21 post bleomycin challenge, CTI 5 mg/kg intratracheally at day 9, 12, 15 and 18): 20%
histological changes in the lung [3, 6]: no histological changes in the lung
inflammatory cells infiltration into airspaces [3, 6]: mild degree of inflammatory cells infiltration into airspaces
